Experiments:
[1] = biological target: leucine-rich repeat containing 19 (LRRC19) protein (UniProt Q9H756); test: MST; Monolith NT.115; NT647-labelled LRRC19 and DVF in the presence of typhaneoside; MST buffer (50 mM Tris-HCl pH 7.4, 150 mM NaCl, 10 mM MgCl2)
[2] = biological target: leucine-rich repeat containing 19 (LRRC19) protein (UniProt Q9H756); test: SPR; BIACORE 3000, 25 °C; LRRC19 immobilised on a CM5 chip (EDC/NHS); DVF in Tris buffered saline injected at 30 μL/min, at least 5 concentrations, 180 s binding, 300 s dissociation

leucine-rich repeat containing 19 (LRRC19) protein, sequence (Q9H756 25-270): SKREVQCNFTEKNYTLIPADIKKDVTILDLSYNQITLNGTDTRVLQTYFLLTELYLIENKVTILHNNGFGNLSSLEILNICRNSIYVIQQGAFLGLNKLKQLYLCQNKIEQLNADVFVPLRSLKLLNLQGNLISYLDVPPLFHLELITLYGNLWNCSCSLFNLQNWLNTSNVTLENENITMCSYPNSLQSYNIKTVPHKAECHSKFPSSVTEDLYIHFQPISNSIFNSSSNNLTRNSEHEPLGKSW

- fold reduction of the binding affinity by typhaneoside (against DVF-LRRC19 without it) [1]: 400 fold
- Kd [2]: 35 µM
Substance: Desulfovibrio vulgaris flagellin (natural protein)

From publication PMC10763354
